In publication PMC4932183, “Structure and activation of pro-activin A” (Nature Communications, 2016):

T1: cleaved pro-activin A complex (pro-mature complex) (human, UniProt P08476 311-426)
T1 sequence (P08476 whole entry, looked up): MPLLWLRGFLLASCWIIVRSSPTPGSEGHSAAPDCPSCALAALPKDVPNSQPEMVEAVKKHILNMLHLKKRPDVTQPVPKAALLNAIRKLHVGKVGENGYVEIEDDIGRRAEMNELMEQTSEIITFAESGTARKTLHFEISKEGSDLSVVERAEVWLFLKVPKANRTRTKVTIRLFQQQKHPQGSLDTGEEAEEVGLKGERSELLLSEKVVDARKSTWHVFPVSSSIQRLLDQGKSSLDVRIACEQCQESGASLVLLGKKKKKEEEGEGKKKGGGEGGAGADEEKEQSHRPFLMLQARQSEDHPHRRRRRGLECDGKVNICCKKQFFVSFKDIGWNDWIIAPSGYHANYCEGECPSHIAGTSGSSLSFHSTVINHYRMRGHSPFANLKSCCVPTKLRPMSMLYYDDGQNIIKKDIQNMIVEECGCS

B1: follistatin-288 (natural protein, UniProt P19883-2 30-317, looked up)
chain: GNCWLRQAKNGRCQVLYKTELSKEECCSTGRLSTSWTEEDVNDNTLFKWMIFNGGAPNCIPCKETCENVDCGPGKKCRMNKKNKPRCVCAPDCSNITWKGPVCGLDGKTYRNECALLKARCKEQPELEVQYQGRCKKTCRDVFCPGSSTCVVDQTNNAYCVTCNRICPEPASSEQYLCGNDGVTYSSACHLRKATCLLGRSIGLAYEGKCIKAKSCEDIQCTGGKKCLWDFKVGRGRCSLCDELCPDSKSDEPVCASDNATYASECAMKEAACSSGVLLEVKHSGSCN
B2: mature activin A (disulfide-linked dimer of the mature domain of inhibin βA) (ligand, human, UniProt P08476 311-426, looked up)
chain: GLECDGKVNICCKKQFFVSFKDIGWNDWIIAPSGYHANYCEGECPSHIAGTSGSSLSFHSTVINHYRMRGHSPFANLKSCCVPTKLRPMSMLYYDDGQNIIKKDIQNMIVEECGCS
notes: human inhibin βA chain (Uniprot P08476), mature domain, up to residue 426; residues marked m (Asp27m) count on the mature domain. numbers count on: the mature protein; Residues of the HRV 3C site could be left at the N-terminus of the complex-derived form; also called mature dimer; control activin A

How the values were obtained:
[1] = molecular target: T1, cleaved pro-activin A complex …; experiment: cell-based or functional assay
[2] = molecular target: B2; experiment: cell-based or functional assay
[3] = molecular target: T2, Avi-tagged follistatin-288, biotinylated (UniProt P19883-2 30-317, biotin (on the Avi tag, by BirA)); experiment: BLI; biotinylated Avi-tagged FST-288 immobilised on streptavidin biosensors; analytes in kinetic buffer (PBS, 0.1% bovine serum albumin, 0.02% Tween-20); 600 s association, 600 s dissociation; 30 °C; details: both partners purified
T2 construct: source: biotinylated with BirA enzyme, purified by reverse phase chromatography

Binder | IC50 of FST-288 for inhibition of signalling by 60 pM pro-activin A complex; activin-inducible luciferase reporter in HEK293T cells [1] [pM] | IC50 of FST-288 for inhibition of signalling by 60 pM mature activin A; activin-inducible luciferase reporter in HEK293T cells [2] [pM] | Kd [3] [nM]
B1 | 90 | 81 | 
B2 |  |  | 0.209
